Data taken from US20040038293A1 (Novartis, published 2004).

Key:
[1] = target: T1, recombinant soluble human CD154 (extracellular portion of human CD154 fused to mouse Cκ), trimeric (human; mouse, UniProt P29965 47-261); assay: SPR (BIAcore), ABI793 immobilised, CD154-κ 10 to 160 nM in solution, n = 3
T1 construct: extracellular domain; also called CD154-κ; soluble recombinant CD154; not shown: mouse immunoglobulin kappa constant region (Cκ)
T1 sequence (looked up): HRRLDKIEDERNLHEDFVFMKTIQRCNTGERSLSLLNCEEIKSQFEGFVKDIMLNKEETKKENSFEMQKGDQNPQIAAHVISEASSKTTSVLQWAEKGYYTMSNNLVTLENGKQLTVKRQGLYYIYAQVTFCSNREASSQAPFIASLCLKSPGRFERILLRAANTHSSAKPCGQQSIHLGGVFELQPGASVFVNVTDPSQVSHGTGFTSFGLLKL
Description: The association and dissociation rate constant for the binding of recombinant human CD154 to ABI793 is determined by BIAcore analysis. ABI793 is immobilized, and binding of soluble recombinant CD154 (CD154-κ) in a concentration range from 10 to 160 nM is measured by surface plasmon resonance. The chosen format represents a monovalent interaction. Data analysis is performed using the BIA evaluation software.

[2] = target: T1, recombinant soluble human CD154 …; assay: cell-based or functional assay
[3] = target: T1, recombinant soluble human CD154 …; assay: cell-free competitive binding assay: CD154-κ immobilised, biotinylated soluble human CD40, Eu-streptavidin fluorimetry
Description: The ability to inhibit the binding of CD154 to CD40 is tested in a cell-free competitive binding assay. Recombinant soluble human CD154 (i.e., the extracellular portion of human CD154 fused to mouse Cκ) is immobilized on microtiter plates and the plates incubated, in the presence or absence of a putative inhibitor, with biotinylated recombinant soluble human CD40. The fraction of CD40 bound to CD154 is fluorimetrically determined using Eu-labelled streptavidin as the detection reagent.

Kd [1]: 23.1 nM | koff [1]: 0.000538 s⁻¹ | kon [1]: 23400 M⁻¹ s⁻¹ | Inhibition of CD154/IL-4 driven B Cell Proliferation (3H-TdR uptake), IC50 [2]: 0.073 µg/mL | IC50 [3]: 0.075 µg/mL
B1: ABI793 antibody (human anti-human CD154 monoclonal antibody from hybridoma # 207.2) (antibody, V domains shown)
VH: QVQLVQSGAEVQKPGSSVKVSCKASGGTFSNFAFNWVRQVPGQGLEWMGRILPSLDIASYAQKFQDRVTITADKSTSTAYMELSSLRSEDTAMYYCAREVDGGGFDYWGQGTLVTVSS
VL: DIQMTQSPSSLSASVGDRVTITCRASQGISSWLAWYQQKPEKAPKSLIYAASSLQSGVPSRFSGSGSGTDFTLTISSLQPEDFATYYCQQYNSYPFTFGGGTKVEIK
notes: FTC-labelled in part of the flow cytometry experiments; also called Antibody of the Invention
